Reference: paper PMC11643828, “Tumor-Targeted Cell-Penetrating Peptides Reveal That Monomethyl Auristatin E Temporally Modulates the Tumor Immune Microenvironment” (Molecules, 2024)
*1 amine or outer side, *2 acyl side, *3 side chain or, on linkers, in order; H or OH if unused. Where a SMILES comes first, the peptide text is derived from it. Bridges are numbered along the chain shown (N, C = ends). Roman numbers before positions name the chains, in order. [ ]: non-standard residue; d: D form. The star is where a group is joined. X2 = O=C(CCCCCN1C(=O)CC([*:2])C1=O)NCCOCCOCCOCCOCCOCCOCCOCCOCCC(=O)[*:1]; Hexanoyl(6-succinimido-3yl) = O=C1CC([*:1])C(=O)N1CCCCCC(=O)[*:2]; Dolaproine = CO[C@@H]([C@@H]1CCCN1)[C@@H](C)C(=O)O; Dil = CC[C@H](C)[C@H](NC)[C@@H](CC(=O)O)OC; PABC = O=C(OCc1ccc(N[*:1])cc1)[*:2]; X1 = C[C@@H](N*)[C@@H](O)c1ccccc1; Cit = NC(=O)NCCC[C@H](N)C(=O)O; NMeV = CN[C@H](C(=O)O)C(C)C; AEA = NCCOCC(=O)O

Tests used:
[1] = Mouse body weights in the therapy studies (safety and tolerability); assay type: in vivo, mice; conditions: LL2 and B16 therapy studies, total 40 nmoles IV, weighed weekly
Experimental: To assess the safety and tolerability of systemically administered ACPP-MMAE conjugate, mice weights were measured weekly in the two therapy studies above.
(A) Mice bearing LL2 tumors IV injected with vehicle (untreated) or cRGD-ACPP-MMAE (20 nmoles on days 4 and 6). Individual tumor volumes plotted, left panel. Average tumors volumes on day 18 plotted as mean ± SEM, right panel (n = 10 for untreated, n = 6 for cRGD-ACPP-MMAE). Statistical significance calculated using two-tailed t testing. (B) Mice bearing B16 tumors IV injected with vehicle (untreated) or cRGD-ACPP-MMAE (20 nmoles on days 3 and 5). Individual tumor volumes plotted, left panel. Average tumors volumes on day 19 plotted as mean ± SEM, right panel (n = 10 for untreated, n = 6 for cRGD-ACPP-MMAE). Statistical significance calculated using two-tailed t testing. (C) Mouse body weights of mice from experiments in (A,B), plotted as mean fractional body weight ± SEM.
LL2 and B16 tumor cells were injected subcutaneously into the hindlimbs of 6-week-old female C57BL/6 albino mice in 100 µL of 1:1 Growth Factor Reduced Matrigel (BD) and PBS solution. […] Tumor volumes were measured and calculated using the formula as ½ × Length × Width^2. Body weights were measured weekly to assess general animal health.

[2] = Tissue drug measurement (MMAE biodistribution) after IV cRGD-ACPP-MMAE; assay type: in vivo; conditions: mice with HCT116 xenografts, 10 nmoles IV
Experimental: To determine tissue specificity and the kinetics of ACPP targeting in human and murine tumor model systems, we used complementary approaches, measuring drug concentrations in harvested tissues and non-invasive fluorescence whole-animal imaging. First, the pharmacokinetics of cRGD-ACPP-MMAE drug accumulation were measured in tumor and normal tissues from mice with human HCT116 xenografts. Tumor-bearing mice were intravenously (IV) injected with cRGD-ACPP-MMAE (Figure 3A). Blood, tumor, and normal tissues (heart, kidney, liver, and muscle) were collected 2, 6, and 24 h after IV injection and assayed for MMAE by LC–MS/MS (Figure 3C). […] To determine the spatial specificity of ACPP drug delivery, normal muscle tissue adjacent to the tumor xenograft was harvested.
Mice with established subcutaneous HCT116 tumors were intravenously injected through the tail vein with 10 nmoles of cRGD-ACPP-MMAE. Tumors, blood, and normal tissues were harvested at indicated time points and homogenized in 10 volumes of PBS with a point sonicator (amplitude range 5–15%). Homogenates were centrifuged ([…], 10 min) with supernatants collected and diluted 2-fold by the addition of 2% acetic acid in acetonitrile, followed by centrifugation (14× g, 10 min). MMAE concentration was measured by using LC–MS/MS with a Luna-2 C18 column (Phenomenex, Torrance, CA, USA) and Agilent Trap XCT mass spectrophotometer (Agilent), with extracted ion currents at 686.4 and 506.4 integrated and combined to improve sensitivity. Ion currents were fitted to a standard curve to determine tissue drug concentrations.

tubulin = conditions: cited from earlier work
Source text: In the progression of cancers, a matrix metalloproteinase (MMP) remodeling of the extracellular tumor environment is essential for invasion and metastases. The fundamental role that MMPs play in tumor spread has made them a focus for developing new cancer therapies. While inhibitors to MMPs have been developed, pharmacologically blocking MMPs has not proven effective in patients. Alternative to enzymatic inhibition, tumor MMP activity can be therapeutically co-opted for targeting drug delivery. An example of this strategy involves cloaking cell-penetrating peptide–drug c ...

SMILES | mouse body weights, control versus treated [1] | tissue with highest MMAE level at 2 h ([2]; 2 h, LC-MS/MS) | tumor MMAE concentration versus peri-tumoral muscle by 6 h ([2]; 6 h, LC-MS/MS) | tumor MMAE versus normal tissues at 24 h post-injection ([2]; 24 h, LC-MS/MS, one-way ANOVA with Tukey) | MMAE concentration in normal tissues after 6 h post-drug delivery ([2]; LC-MS/MS) | tumor MMAE concentration over 24 h post-injection ([2]; LC-MS/MS) | time of peak MMAE concentration in all normal tissues (heart, kidney, liver, muscle) ([2]; tissues collected 2, 6, 24 h, MMAE by LC-MS/MS) [h] | potency for mitotic arrest and cell death (tubulin)
CC[C@H](C)[C@@H]([C@@H](CC(=O)N1CCC[C@H]1[C@H](OC)[C@@H](C)C(=O)N[C@H](C)[C@@H](O)c1ccccc1)OC)N(C)C(=O)[C@@H](NC(=O)[C@H](C(C)C)N(C)C(=O)OCc1ccc(NC(=O)[C@H](CCCNC(N)=O)NC(=O)[C@@H](NC(=O)CCCCCN2C(=O)CC(SC[C@@H](NC(=O)[C@@H](CCCNC(=N)N)NC(=O)[C@@H](CCCNC(=N)N)NC(=O)[C@@H](CCCNC(=N)N)NC(=O)[C@@H](CCCNC(=N)N)NC(=O)[C@@H](CCCNC(=N)N)NC(=O)[C@@H](CCCNC(=N)N)NC(=O)[C@@H](CCCNC(=N)N)NC(=O)[C@@H](CCCNC(=N)N)NC(=O)[C@@H](CCCNC(=N)N)NC(=O)CNC(=O)[C@H](C)NC(=O)[C@H](CSC)NC(=O)CNC(=O)[C@H](CC(C)C)NC(=O)[C@@H]3CCCN3C(=O)COCCNC(=O)[C@@H](CCC(=O)O)NC(=O)[C@@H](CCC(=O)O)NC(=O)[C@@H](CCC(=O)O)NC(=O)[C@@H](CCC(=O)O)NC(=O)[C@@H](CCC(=O)O)NC(=O)[C@@H](CCC(=O)O)NC(=O)[C@@H](CCC(=O)O)NC(=O)[C@@H](CCC(=O)O)NC(=O)[C@@H](CCC(=O)O)NC(=O)CCOCCOCCOCCOCCOCCOCCOCCOCCNC(=O)CCCCCN3C(=O)CC(SC[C@@H]4NC(=O)[C@@H](Cc5ccccc5)NC(=O)[C@H](CC(=O)O)NC(=O)CNC(=O)[C@H](CCCNC(=N)N)NC4=O)C3=O)C(N)=O)C2=O)C(C)C)cc1)C(C)C (some centres unmarked) [cRGD-ACPP-MMAE, cyclo(RGD)fc-MC-HN-peg8-e9-oPLGC(Me)AG-r9-c-(MC-VC-PABC-MMAE)-CONH2] (I: [dE][dE][dE][dE][dE][dE][dE][dE][dE][AEA]PLGC(Me)AG[dR][dR][dR][dR][dR][dR][dR][dR][dR][dC]-NH2 / II: V[Cit][PABC][NMeV]V[Dil][Dolaproine]-X1 / III: cyclo(RGD[dF]C); linker I:26-II:N via Hexanoyl(6-succinimido-3yl); linker I:N-III:5 via X2) | no significant difference | the kidneys had the highest levels of MMAE | higher than the surrounding normal muscle tissue | significantly higher than all normal tissues assayed | rapid decrease | remained relatively constant | 2 | 
CC[C@H](C)[C@@H]([C@@H](CC(=O)N1CCC[C@H]1[C@H](OC)[C@@H](C)C(=O)N[C@H](C)[C@@H](O)c1ccccc1)OC)N(C)C(=O)[C@@H](NC(=O)[C@@H](NC)C(C)C)C(C)C [MMAE, Monomethyl auristatin E] (H-[NMeV]V[Dil][Dolaproine]-X1) |  |  |  |  |  |  |  | single nanomolar range
